The source of these data is patent JP2011147454A (dated 2011).

Numbering of substitutions follows the chain as printed. Where two headings read alike, the source gives them in different places.

Test [1] addresses 組換え細菌由来のヒトIL-13 (Peprotech) (human) (UniProt P35225). The experiment in a line: cell-based or functional assay.
In test [2] the target is 未変性の(天然に存在する)ヒトIL-13 (HDLM-2細胞から放出) (human) (UniProt P35225). The experiment in a line: cell-based or functional assay.
The target in test [3] is T1, 組換え細菌由来のネズミIL-13 (Peprotech) (murine (mouse), UniProt P20109 21-131, limits assumed).
T1 sequence (looked up): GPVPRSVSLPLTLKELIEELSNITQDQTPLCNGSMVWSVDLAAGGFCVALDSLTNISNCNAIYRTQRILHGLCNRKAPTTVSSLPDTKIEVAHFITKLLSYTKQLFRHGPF
Kind of test: cell-based or functional assay.

Test [4] has as its target T1, 組換え細菌由来のネズミIL-13 (Peprotech). The experiment in a line: SPR (BIAcore 2000), IgG4 amine-coupled to chip (~500 RU), IL-13 50-0.78 nM in solution. A general note: Surface plasmon resonance follows binding to a sensor surface in real time, without labels.
Test [5] has as its target 組換えヒトエオタキシン-1 (R&D Systems) (human) (UniProt P51671). The experiment in a line: cell-based or functional assay.
Test [6] concerns the target T2, 非ヒト霊長類IL-13 (アカゲザル/カニクイザル; バキュロウイルス発現, C末端親和性タグ付き) (rhesus / cynomolgus monkey).
T2 chain: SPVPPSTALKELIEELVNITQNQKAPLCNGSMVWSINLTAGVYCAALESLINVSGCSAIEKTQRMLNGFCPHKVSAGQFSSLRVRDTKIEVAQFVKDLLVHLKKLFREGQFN
The experiment in a line: cell-based or functional assay.

Test [7] has as its target ヒト変種IL-13 (Q130R) (バキュロウイルス発現, C末端親和性タグ付き) (human) (UniProt P35225). The experiment in a line: cell-based or functional assay.
Test [8] has the same target. Kind of test: cell-based or functional assay. The source holds these as a separate data set.
Test [9] deals with 野生型ヒトIL-13 (バキュロウイルス発現, C末端親和性タグ付き) (human) (UniProt P35225). The experiment in a line: cell-based or functional assay.
Test [10] addresses 組換え細菌由来のヒトIL-13 (Peprotech) (human) (UniProt P35225). The experiment in a line: cell-based or functional assay. This is another data set of the same source.
Test [11] has as its target 未変性の(天然に存在する)ヒトIL-13 (HDLM-2細胞から放出) (human) (UniProt P35225). The experiment in a line: cell-based or functional assay. This is another data set of the same source.
Test [12] has as its target 組換え細菌由来のヒトIL-13 (Peprotech) (human) (UniProt P35225). Kind of test: SPR (BIAcore 2000), IgG4 amine-coupled to chip (~500 RU), IL-13 50-0.78 nM in solution.

Chain of UniProt P51671 (P51671 24-97 limits assumed): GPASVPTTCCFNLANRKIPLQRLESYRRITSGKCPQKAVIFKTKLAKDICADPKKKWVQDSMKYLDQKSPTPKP

In test [1], “JES10-5A2 (ラットIgG1, Biosource) (antibody)” yielded an IC50, NHLFエオタキシン放出アッセイ of 0.623 nM and an IC50, TF-1細胞増殖アッセイ of 1.02 nM. Also, the IC50, HDLM-2細胞増殖アッセイ in [2] was found to be 10.7 nM.

BAK502G9 IgG4 (antibody): the IC50, HDLM-2細胞増殖アッセイ in test [2] was found to be 4.6 nM.

In test [1], B-B13 (マウスIgG1, Euroclone) (antibody) had an IC50, NHLFエオタキシン放出アッセイ of 0.219 nM and an IC50, TF-1細胞増殖アッセイ of 0.471 nM. The IC50, HDLM-2細胞増殖アッセイ in [2] is 16.7 nM.

B1: BAK209B11 scFv (scFv, V domains shown)
VH: VQLQESGGGGLVQPGGSLRLSCAASGFTFSSYGMSWVRQAPGKGLEWVSSISASGDSTFYADSVKGRFTISRDNNKNMVFLQVNSLRADDTAVYFCAKDWSQWLVGDAFDVWGRGTTVTVSS
VL: DIQLTQSPSTLSASVGDRVTITCRASQSVSLWVAWYQQRPGKAPKLLIYDGSTLQSGVPARFSGSGSGTEFTLTISSLQPDDFATYYCQQYKTFSTFGQGTKVEIK
Consider B1, for which the “IC50, TF-1細胞増殖アッセイ” value in [3] stood at 185 nM.

B2: BAK209B11 IgG4 (antibody, V domains shown)
VH: B1 VH
VL: DIQLTQSPSTLSASVGDRVTITCRASQSVSLWVAWYQQRPGKAPKLLIYDGSTLQSGVPARFSGSGSGTEFTLTISSLQPDDFATYYCQQYKTFSTFGQGTKVEIKR
In general, Kd refers to the constant that tells how readily two partners part at equilibrium. Low readings indicate higher affinity, high ones lower affinity. Consider B2, for which the “IC50, B9細胞増殖アッセイ” value in test [3] was determined as 0.776 nM. Also, binding in [4] was characterised by a dissociation constant (Kd) of 5.1 nM.

B3: CAT-213 (antibody, from another filing, V domains shown)
VH: QVQLVQSGGGVVQPGRSLRLSCAASGFTFSSYGMHWVRQAPGKGLEWVAVISYDGSIKHYADSVKGRFTISRDNSKNTLYLQMNSLRTDDTAVYYCAGDTDYGDIDPWGQGTMVTVSS
VL: DIQMTQSPSSVSASVGDRVTITCRASQDISSWLAWYQQKPGKAPKLLIYAASSLQSGVPSRFSGSGSGTDFTLTISSLQPEDFATYYCQQASSFPSITFGQGTRLEIKR
Regarding B3, the 好酸球形態変化 (%ブランク形態変化), 100 nM CAT-213 in test [5] was determined as 101%.

B4: BAK502G9 IgG4 (antibody, V domains shown)
VH: QVQLVQSGAEVKKPGASVKVSCKASGYTFTNYGLSWVRQAPGQGLEWMGWISANNGDTNYGQEFQGRVTMTTDTSTSTAYMELRSLRSDDTAVYYCARDSSSSWARWFFDLWGRGTLVTVSS
VL: SYVLTQPPSVSVAPGKTARITCGGNIIGSKLVHWYQQKPGQAPVLVIYDDGDRPSGIPERFSGSNSGNTATLTISRVEAGDEADYYCQVWDTGSDPVVFGGGTKLTVL
Take B4: the “IC50, TF-1細胞増殖アッセイ” value in test [6] came out at 2 nM; in [7], 1.9 nM.

B5: BAK1183H4 IgG4 (antibody, from another filing, V domains shown)
VH: B4 VH with S52N, A53Y, N54D, N55G, D57N, N59Q
VL: B4 VL
Turning to B5, in [8], the IC50, TF-1細胞増殖アッセイ came to 1 nM. Besides, the IC50, TF-1細胞増殖アッセイ in [9] was found to be 0.9 nM. In [10], this molecule gave an IC50, HUVEC VCAM-1アップレギュレーション of 0.058 nM and an IC50, NHLFエオタキシン放出アッセイ of 0.118 nM. Moreover, the IC50, HDLM-2細胞増殖アッセイ in test [11] was found to be 3.5 nM. Further, in [12], the Kd amounted to 0.081 nM.

B6: BAK1167F2 IgG4 (antibody, V domains shown)
VH: B4 VH with T30E, N31Q, Y32T, L34V
VL: B4 VL
For B6, the “IC50, TF-1細胞増殖アッセイ” value in test [6] was 1.3 nM; in [8] it was 1.1 nM; in test [9], 1 nM. In [10], this molecule showed an IC50, HUVEC VCAM-1アップレギュレーション of 0.055 nM. In [10], this molecule showed an IC50, NHLFエオタキシン放出アッセイ of 0.069 nM. The molecule further showed an IC50, HDLM-2細胞増殖アッセイ in test [11] of 1.1 nM. Also, the Kd in test [12] is 0.136 nM.

B7: BAK1183H4 IgG4 (antibody, V domains shown)
VH: B4 VH with S52N, A53Y, N54D, N55G, D57N, N59Q
VL: B4 VL with T21P
As to B7, in test [6], the “IC50, TF-1細胞増殖アッセイ” value is 1.6 nM.
